Reference: the DeepSol protein solubility set

test: soluble on expression in E. coli; label from the status in PepcDB or PDB records

Sequence	soluble on expression in E. coli
MRALPIADDVAGVIFALNGGDLGEDTGCVYYFAPDTLNWESLEVGYSEFLQWALSGDLDTFYENVRWQQWREDVIKLSATEAFTFYPFLWVQSEEARTRKVISLTELWEMQYQMKETFTQLEHHHHHH	not soluble
MRAPGVRAADGAGRVVLYLHGGAFVMCGPNSHSRIVNALSGFAESPVLIVDYRLIPKHSLGMALDDCHDAYQWLRARGYRPEQIVLAGDSAGGYLALALAQRLQCDDEKPAAIVAISPLLQLAKGPKQDHPNIGTDAMFPARAFDALAAWVRAAAAKNMVDGRPEDLYEPLDHIESSLPPTLIHVSGSEVLLHDAQLGAGKLAAAGVCAEVRVWPGQAHLFQLATPLVPEATRSLRQIGQFIRDATADSSLSPVHRSRYVAGSPRAASRGAFGQSPI	soluble
MRAVIPYKKAGAKSRLSPVLSLQEREEFVELMLNQVISSLKGAGIEQVDILSPSVYGLEEMTEARVLLDEKDLNEALNRYLKEAEEPVLIVMADLPLLSPEHIKEISSTEKDVCIVPGKGGGTNALFIKNPSKYRVKYYGSSFLTHCSIATDSGQDFEIYDSFMAGTDIDEPEDLVELLIHGKGAAKDYIESKFRLEVKKG	not soluble
MRCPYCQYEDTQVKDSRPSEEGTVIRRRRICSVCGGRFTTFERVQLRELLVLKKSGRYEPFDRDKLMRSVEIAVRKRGIDPDYIERVISGIVRQLESLGEPEISSEKIGLLVMKALKSIDDIAYIRFASVYRDFRNASDFHDVIEELSKGITDTESCFDE	not soluble
MRDFLNTKNQTNQSVYLAILRIKMKTPYQIQFEAFNADDFYTEAHAKLYAQFADNLINEGNYSIVYKGVAHACYTPITIDKAPHLKCFVLAPLAVLPEHQGKGYATQLMEQAESELGADVIFVLGDPKHYARRFNAQHNVALPIGSDESPDFWFARELTTDALDGIGQSSSTIKGVFADPIMWSHPDEQI	not soluble
MRDIQMVLERWGAWAANNHEDVTWSSIAAGFKGLITSKVKSRPQCCDDDAMIICGCMARLKKNNSDLHDLLVDYYVVGMTFMSLAGKHCCSDGYIGKRLQKAEGIIEGMLMALDIRLEMDIVVNNSNLEHHHHHH	not soluble
MRDVDLTAAPAKKAKLDTGERIAVSGRVASVKLTNFMCHANLQIDFKTAQNNCFYIGGPNGSGKSALFAAINLGLGGRGSDNDRGNTVKSYIKDGTTQSKITITLTNAGLNAHPDFDDLISIERTINQASSTYIMKSVKVTSSDNHVERIVSRKKADVDRIVSRFSIHLSNPAFWMSQDRSRSFLANFKPANVYKLYLESTNLENIRLSYIRFADALDECFALIQLKAGEILNEQKKLKRMQEQRDLQAKLDQDRALVASFCWKLLFCKVRDYNDQIELTLKKQEAQKTLQDETKKEYAKNRAARTEVEKKIQEFRDEVEVQDAEIAEAREDLDAKKRKVLEFEEKIRECEQSIRKKTSEKKYMERTIVNAKNEVRILLEKQGNQDLTKRLTKVENDYKDISQQRENMELGGESAKLREKLDTVITDYKRKEEEKYTIQRDINQLRRKIEQDMETMRRSRATKKDAINKFGSHMAEILMEINRSKSRFQTVPKGPLGKYITLIDPKWAFTVEECIGNLANNFLCSSHLDAEILRNIFQSLRIPAQDRPTIIVAKCNGRAYTNLHEPSSDFKSIYRVLKFSDPDVHNVIIDKSNCEQFILIEDKTEAMELMGSNYPPQNAVKAYTLDGSQAYANGPNSQYRFYSGRGGHARGTFGNDQGDVDEGALARLIEDTKSEAMRLETQDLRKQDHELKVIYNERDQTKAAIDEFDRKLSNLRSQELQKERQAKDLRAELAQTANEDQVENLNESIEEMQKKIPLIEDEVKDILKNVADITADMAPVIQERKEAEHTLAEIQKETRDFASKSQKLQNELSKYDDAGEILKIRLDKVKADEGVFFHTEAKLKSERDDAMEMVENDKKNHPMPPGETDPPDLSSFPSTTEAQRKIEEMQKAVDRATVGCDTTITLECVKDFKDKLKRLKYLCRMIEDVLIELKNLHAARVKAYPSLKKFTELKVCNKFQELLAVRGHFIGGLEFDHEKETLNVNVQSSKEKDAMAGRRPEVLEVEEVDEHSYDDDSDDSTGPRRKKSKKSGQKKKRVRDLKGLSGGERSFVTAALVMSLWEVMEQPFRMMDEFDVFMDMMNRKLVMDLLVELATKKFPHNQFIFFTPQGIKELNMVDGLQVFEMNRVRD	not soluble
MREEVKTVIKVKTVGDVPAIVSARKSITEGKVKDAIISGYRDVKNDYMRYFGIQQAPDEGERLFIVNTLKGLGIDLPEESIVDGKFIIDRISGMDLASTDPKVACFVKIAEFYLKYYEKAKYSDSVIEDDGEIIERLTGIYNYMDITKLYFKGDDAGVGT	not soluble
MRESPYRILEEALRPHLGARAQVVLEEGLKRLGKRPEELSEKDAETLLKGLIFRELQARLPAAQARRAVEEALARLAPAPEGGLEALERGLARFGLYVDWPEVGRLRALVNRLRREPDPRLLQEGLALLDHLEEKLEEALLRQAQDLAHLEEALERVRPLGGPKVRRLESLIQIVREAHREGTLAQGEVERARGPGPEAPQVPGLQSRPARHPPRDGL	soluble
MRFVYLSDLDNNQKNFYKEADRQSALLSMLIEKDIDFIGAGANFYQVGSKKDWSQFPLFADSLLHRSNSLISLQWMEKVEEKDIDEHFQQIHKNYPLAKLYTVPKDQPKTYGYVMKNHEPIYIATDIYPRDEKNTPLIGFYSSRERFNLVVEEFLTTGRPSVSDKIRLLQDSLDQSAQKTGMLVYHPVFTSDKTALKGVMVGVVRITSYFDRLVNSTSLGEELVVRIIDTGFDAGDDPIMYQSSTWNNFKGVDYTTSVKIENRLWKIEYKSDNKLNEYQRLTLEHHHHHH	not soluble
MRGLMLRSFSAGYSTQPVIADLNVPLLPRGKITILLGPNGCGKSTLLRSLAGLNNADGEALLDGEDLMSLSFAERAQKVVFLPQSLPQGVHLHVLESIIVVLRASGGRDNAQGRAQILAILEQLGITHLALQYLDQLSGGQRQLVGLAQSLIRRPELLLLDEPLSALDLNYQFHVMDLVRRDTQAQNRVTIVVAHDINIALRHGDHVLMLKDGRLVASGAPETVITAERLAEVYRVRGRVERCSQGKLQVVLDGVIAV	not soluble
MRGSHHHHHHGLVPRGSMIRTMLQGKLHRVKVTHADLHYEAGSCAIDQDFLDAAGILENEAIDIWNVTNGKRFSTYAIAAERGSRIISVNGAAAHCASVGDIVIIASFVTMPDEEARTWRPNVAYFEGDNEMKRTAKAIPVQVA	soluble
MRGSHHHHHHGSACVSKRRVVVTGLGMLSPVGNTVESTWKALLAGQSGISLIDHFDTSAYATKFAGLVKDFNCEDIISRKEQRKMDAFIQYGIVAGVQAMQDSGLEITEENATRIGAAIGSGIGGLGLIEENHTSLMNGGPRKISPFFVPSTIVNMVAGHLTIMYGLRGPSISIATACTSGVHNIGHAARIIAYGDADVMVAGGAEKASTPLGVGGFGAARALSTRNDNPQAASRPWDKERDGFVLGDGAGMLVLEEYEHAKKRGAKIYAELVGFGMSSDAYHMTSPPENGAGAALAMANALRDAGIEASQIGYVNAHGTSTPAGDKAEAQAVKTIFGEAASRVLVSSTKSMTGHLLGAAGAVESIYSILALRDQAVPPTINLDNPDEGCDLDFVPHEARQVSGMEYTLCNSFGFGGTNGSLIFKKI	soluble
MRGSHHHHHHGSADAYPSKAIRVIVPFAPGGSTDIIARLVTQRMSQELGQPMVVENKGGAGGAIGASEAARAEPDGYTLSIATVSTMAVNPACRPKDLPYDPIKDFQPVTNFANTANVVAVNPKFPAKDFKGFLEELKKNPGKYSYGSSGTCGVLHLMGESFKMATGTDIVHVPYKGSGPAVADAVGGQIELIFDNLPSSMPQIQAGKLRAMAIAWPTRIDAIKDVPTFADAGFPVLNQPVWYGLLAPKGTPMDVVNKLRDAAVVALKDPKVIKALDDQGSAPSGNTPEEFAKEIKEQYDWAQDVVKKQNIKLD	soluble
MRGSHHHHHHGSESETLTAKATITTTTLPSHDETKTESTEFEKNQKRYQDLISTFPHEKGWRPKEPLIEYGGYWWLPSLLEGCIHAQEFFQARPSDFLVCSYPKTGTTWLKALTFAIANRSRFDDSSNPLLKRNPHEFVPYIEIDFPFFPEVDVLKDKGNTLFSTHIPYELLPDSVVKSGCKMVYIWREPKDTFISMWTFLHKERTELGPVSNLEESFDMFCRGLSGYGPYLNHILAYWKAYQENPDRILFLKYETMRADPLPYVKSLAEFMGHGFTAEEEEKGVVEKVVNLCSFETLKNLEANKGEKDREDRPGVYANSAYFRKGKVGDWSNYLTPEMAARIDGLMEEKFKGTGLLEHGKKLN	soluble
MRGSHHHHHHSNFAIILAAGKGTRMKSDLPKVLHKVAGISMLEHVFRSVGAIQPEKTVTVVGHKAELVEEVLAGQTEFVTQSEQLGTGHAVMMTEPILEGLSGHTLVIAGDTPLITGESLKNLIDFHINHKNVATILTAETDNPFGYGRIVRNDNAEVLRIVEQKDATDFEKQIKEINTGTYVFDNERLFEALKNINTNNAQGEYYITDVIGIFRETGEKVGAYTLKDFDESLGVNDRVALATAESVMRRRINHKHMVNGVSFVNPEATYIDIDVEIAPEVQIEANVILKGQTKIGAETVLTNGTYVVDSTIGAGAVITNSMIEESSVADGVTVGPYAHIRPNSSLGAQVHIGNFVEVKGSSIGENTKAGHLTYIGNCEVGSNVNFGAGTITVNYDGKNKYKTVIGDNVFVGSNSTIIAPVELGDNSLVGAGSTITKDVPADAIAIGRGRQINKDEYATRLPHHPKNQ	soluble
MRGSHHHHHHTDPALRAAIIPKNYARLESGYREKALKIYPWVCGRCSREFVYSNLRELTVHHIDHDHTNNPEDGSNWELLCLYCHDHEHSKYTEADQYGTTVIAGEDAQKDVGEAKYNPFADLKAMMNKKKGLCGR	soluble
MRGSHSGAQGLLAAQKARGLFKDFFPETGTKIELPELFDRGTASFPQTIYCGFDPTADSLHVGHLLALLGLFHLQRAGHNVIALVGGATARLGDPSGRTKEREALETERVRANARALRLGLEALAANHQQLFTDGRSWGSFTVLDNSAWYQKQHLVDFLAAVGGHFRMGTLLSRQSVQLRLKSPEGMSLAEFFYQVLQAYDFYYLFQRYGCRVQLGGSDQLGNIMSGYEFINKLTGEDVFGITVPLITSTTGAKLGKSAGNAVWLNRDKTSPFELYQFFVRQPDDSVERYLKLFTFLPLPEIDHIMQLHVKEPERRGPQKRLAAEVTKLVHGREGLDSAKRCTQALYHRSHHHHHH	soluble
MRIDPFKLAHWMNARKYTAAQTADLAGLPLDDLRRLLGDEANEPDPAAATALAEALSVEPSQLAADAHRNLTVVHKSAEEMHASRRPIQRDGIHFYNYYTLAAPEGRVAPVVLDILCPSDRLPALNNGHLEPAITVNLGPGDINGRWGEEITPQTWRVLHANHGGDRWITGDSYVEPSYCPHSYSLAGDAPARIVSYTAQSNISPLMTEANNWSTGAFEEALKALSGKVSAGSVLDLFLARRAHTRTSAAEAAGVPPADLEAALRSPASETGLTVLRTLGRALGFDYRVLLPADDQHDGVGKTWTTIEDSRRSRRTFGTYEAASMASAAHLPDLVGSFLRVDADGRGADLIDHAENHYVVTEGRLTLEWDGPDGPASVELEPDGSAWTGPFVRHRWHGTGTVLKFGSGAHLGYQDWLELTNTFEPAATLRRGRRDLAGWGYDN	soluble
MRIESPQNPRVKALAALKERKERERTGRFLVEGRREVERALEAGLSLETLLLGPKARPEDRALAGGAEVLELSERALARVSTRENPAQVLGVFRLPRRSLAGVTLGAAPLVLVLLGLEKPGNLGAILRAADGAGADLVLVAEGVDLFSPQVIRNSTGAVFALPVYPVAEGEAARFLEEHNLPLVAATPEGERLYWEGDYRGGVAFLLGAEDKGLPEAWKRRAQVRVRIPMRGRADSLNVAVTAALLLYEALRQRSGGAPL	soluble
